Source: PMC6744478, “Development of R7BP inhibitors through cross-linking coupled mass spectrometry and integrated modeling” (Communications Biology, 2019)

T1: RGS6/Gβ5 duplex (human, UniProt P49758 1-472; O14775-2 1-353)
T1 construct: RGS6 (regulator of G protein signaling 6), human; Gβ5 (GNB5), human, short form; Only GNB5 constructs with an N-terminal 6x HIS or TS tag are described; also called RGS6 duplex; source: Expi293 HEK cells, transfected, purified
T1 sequence (looked up) 1: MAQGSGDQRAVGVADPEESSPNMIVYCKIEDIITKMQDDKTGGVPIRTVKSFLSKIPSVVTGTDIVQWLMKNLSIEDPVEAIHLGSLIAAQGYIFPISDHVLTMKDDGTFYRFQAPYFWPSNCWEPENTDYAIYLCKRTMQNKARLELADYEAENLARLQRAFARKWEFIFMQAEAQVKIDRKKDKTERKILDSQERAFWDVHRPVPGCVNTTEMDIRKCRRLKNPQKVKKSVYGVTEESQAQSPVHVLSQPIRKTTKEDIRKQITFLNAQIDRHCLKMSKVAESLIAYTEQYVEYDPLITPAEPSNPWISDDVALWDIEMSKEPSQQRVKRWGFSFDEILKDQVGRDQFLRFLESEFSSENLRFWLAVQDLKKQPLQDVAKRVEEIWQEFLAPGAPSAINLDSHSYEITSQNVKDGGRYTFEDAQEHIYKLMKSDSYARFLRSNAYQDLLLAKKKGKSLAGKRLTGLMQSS
T1 sequence (looked up) 2: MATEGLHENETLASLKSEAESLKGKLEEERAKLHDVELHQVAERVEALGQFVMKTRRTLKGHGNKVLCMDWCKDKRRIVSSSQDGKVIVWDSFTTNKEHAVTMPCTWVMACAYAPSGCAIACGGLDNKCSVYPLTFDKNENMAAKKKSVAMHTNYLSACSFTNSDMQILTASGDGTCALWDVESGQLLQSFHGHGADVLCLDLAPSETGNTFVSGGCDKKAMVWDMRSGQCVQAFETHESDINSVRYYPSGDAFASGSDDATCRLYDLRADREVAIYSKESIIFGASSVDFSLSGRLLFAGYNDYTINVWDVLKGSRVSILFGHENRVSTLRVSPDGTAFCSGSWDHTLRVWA

T2: RGS7/Gβ5 duplex (human, UniProt P49802 1-495; O14775-2 1-353)
T2 construct: RGS7 (regulator of G protein signaling 7), human; cDNA in pCMV3 vector from Sino Biological; holds the loop RGS7-LP21 at aa230–250; Gβ5 (GNB5), human, short form; also called RGS7 duplex; RGS7/HIS-Gβ5; source: Expi293 HEK cells, transfected, purified; not shown: 6x HIS (named on the purified RGS7/HIS-Gβ5 of the Western blot)
T2 sequence (looked up) 1: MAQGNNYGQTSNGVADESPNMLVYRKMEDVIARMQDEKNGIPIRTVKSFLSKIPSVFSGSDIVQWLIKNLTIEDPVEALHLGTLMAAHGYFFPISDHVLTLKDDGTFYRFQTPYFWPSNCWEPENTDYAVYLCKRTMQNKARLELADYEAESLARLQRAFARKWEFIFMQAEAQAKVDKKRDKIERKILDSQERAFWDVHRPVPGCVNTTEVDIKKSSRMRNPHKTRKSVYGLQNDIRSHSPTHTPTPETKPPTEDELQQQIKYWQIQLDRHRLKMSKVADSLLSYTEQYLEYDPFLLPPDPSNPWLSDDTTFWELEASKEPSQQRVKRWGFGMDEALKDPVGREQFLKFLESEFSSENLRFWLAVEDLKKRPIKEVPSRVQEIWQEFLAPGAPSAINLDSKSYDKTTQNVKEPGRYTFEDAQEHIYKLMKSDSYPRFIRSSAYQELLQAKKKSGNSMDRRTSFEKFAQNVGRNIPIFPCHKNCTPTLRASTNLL
T2 sequence (looked up) 2: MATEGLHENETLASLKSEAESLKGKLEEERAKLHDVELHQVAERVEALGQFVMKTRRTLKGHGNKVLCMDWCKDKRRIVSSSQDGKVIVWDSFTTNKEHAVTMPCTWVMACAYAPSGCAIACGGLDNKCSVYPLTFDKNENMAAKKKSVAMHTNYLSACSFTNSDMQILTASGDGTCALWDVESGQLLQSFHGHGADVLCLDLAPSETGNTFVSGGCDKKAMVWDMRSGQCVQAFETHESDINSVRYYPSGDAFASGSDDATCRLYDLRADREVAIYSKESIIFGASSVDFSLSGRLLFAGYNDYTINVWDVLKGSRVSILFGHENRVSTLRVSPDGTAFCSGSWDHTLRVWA

T3: RGS9/Gβ5 duplex (human, UniProt O75916 1-674; O14775-2 1-353)
T3 construct: RGS9-2 (regulator of G protein signaling 9, splice form 2), human; cDNA in pCMV3 vector from Sino Biological; Gβ5 (GNB5), human, short form; also called RGS9 duplex; RGS9-2/Gβ5; source: Expi293 HEK cells, transfected, purified
T3 sequence (looked up) 1: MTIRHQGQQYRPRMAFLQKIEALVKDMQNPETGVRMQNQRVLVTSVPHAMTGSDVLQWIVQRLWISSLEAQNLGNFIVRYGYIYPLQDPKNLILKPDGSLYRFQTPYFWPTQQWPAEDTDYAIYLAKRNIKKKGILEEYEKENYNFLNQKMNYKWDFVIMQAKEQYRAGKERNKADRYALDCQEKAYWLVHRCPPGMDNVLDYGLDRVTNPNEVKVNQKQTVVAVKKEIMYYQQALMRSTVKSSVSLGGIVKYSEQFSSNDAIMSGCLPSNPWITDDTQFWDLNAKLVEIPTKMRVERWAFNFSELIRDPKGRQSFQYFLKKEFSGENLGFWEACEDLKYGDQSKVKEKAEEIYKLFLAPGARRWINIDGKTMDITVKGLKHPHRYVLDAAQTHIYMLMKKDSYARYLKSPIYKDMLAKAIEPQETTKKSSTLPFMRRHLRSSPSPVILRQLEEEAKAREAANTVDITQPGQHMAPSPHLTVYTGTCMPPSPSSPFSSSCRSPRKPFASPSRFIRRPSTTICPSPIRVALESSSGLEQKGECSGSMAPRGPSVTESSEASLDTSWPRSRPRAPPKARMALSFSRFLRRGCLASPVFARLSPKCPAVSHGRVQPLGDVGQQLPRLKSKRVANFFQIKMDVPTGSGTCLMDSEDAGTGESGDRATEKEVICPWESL
T3 sequence (looked up) 2: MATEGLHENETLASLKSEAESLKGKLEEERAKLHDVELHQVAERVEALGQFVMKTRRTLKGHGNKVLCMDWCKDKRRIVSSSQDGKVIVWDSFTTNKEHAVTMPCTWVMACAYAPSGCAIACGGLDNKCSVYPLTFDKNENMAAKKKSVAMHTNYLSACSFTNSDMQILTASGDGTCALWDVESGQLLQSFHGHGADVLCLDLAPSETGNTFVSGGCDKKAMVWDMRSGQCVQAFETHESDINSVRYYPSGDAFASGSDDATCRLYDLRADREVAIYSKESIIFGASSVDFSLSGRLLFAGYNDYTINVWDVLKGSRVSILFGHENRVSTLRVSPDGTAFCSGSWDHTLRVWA


Key:
Assay in all cases: SPR; OpenSPR (Nicoya), Streptavidin sensor chip; tagged R7BP variant as ligand, purified R7-RGS/Gβ5 duplex as analyte at 3–5 concentrations; PBS pH 7.4, 0.005% Tween20; 25 µL per minute; 1:1-binding model; two independent experiments
Conditions in all cases: both partners purified
[1] = target: T1, RGS6/Gβ5 duplex
[2] = target: T2, RGS7/Gβ5 duplex
[3] = target: T3, RGS9/Gβ5 duplex
[4] = target: T4, RGS11/Gβ5 duplex (human, UniProt O94810 1-467; O14775-2 1-353)
T4 construct: RGS11 (regulator of G protein signaling 11), human; Gβ5 (GNB5), human, short form; also called RGS11 duplex; source: Expi293 HEK cells, transfected, purified
T4 sequence (O94810 whole entry, one chain of several): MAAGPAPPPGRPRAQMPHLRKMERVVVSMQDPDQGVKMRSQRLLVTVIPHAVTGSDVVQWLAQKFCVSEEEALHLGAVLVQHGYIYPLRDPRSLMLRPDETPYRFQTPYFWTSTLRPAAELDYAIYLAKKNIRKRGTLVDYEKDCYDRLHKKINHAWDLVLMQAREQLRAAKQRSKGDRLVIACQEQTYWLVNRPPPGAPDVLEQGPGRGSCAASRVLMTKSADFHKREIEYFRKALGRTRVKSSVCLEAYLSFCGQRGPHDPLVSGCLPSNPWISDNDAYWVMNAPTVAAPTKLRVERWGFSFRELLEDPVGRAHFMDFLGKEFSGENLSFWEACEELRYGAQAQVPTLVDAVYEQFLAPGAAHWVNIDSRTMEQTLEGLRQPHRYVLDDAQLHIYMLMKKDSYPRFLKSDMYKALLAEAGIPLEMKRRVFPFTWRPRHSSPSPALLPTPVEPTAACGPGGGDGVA

Row | Binder | Kd [1] [nM] | Kd [2] [nM] | Kd [3] [nM] | Kd [4] [nM]
1 | R7BP-FL (full-length R7BP; construct R7BP-TEV-TS) (natural protein, human, UniProt Q6MZT1 1-257, looked up, last residue 257 by the printed aa223–257; palmitoylation site removed; also called RGS7BP; source: Expi293 HEK cells, transfected, purified (StrepTrap HP; SEC if needed); not shown: Twin-Strep (after a TEV protease site), C-terminal, kept) MSSAPNGRKKRPSRSTRSSIFQISKPPLQSGDWERRGSGSESAHKTQRALDDCKMLVQEFNTQVALYRELVISIGDVSVSCPSLRAEMHKTRTKGCEMARQAHQKLAAISGPEDGEIHPEICRLYIQLQCCLEMYTTEMLKSICLLGSLQFHRKGKEPGGGTKSLDCKIEESAETPALEDSSSSPVDSQQHSWQVSTDIENTERDMREMKNLLSKLRETMPLPLKNQDDSSLLNLTPYPLVRRRKRRFFGLSSLISS | 2.3 | 19 | 1.5 | 2.3
2 | R7BPΔN (domain or fragment, human, UniProt Q6MZT1 22-257, looked up, R7BP (RGS7BP), human, lacking the N-terminal 21 amino acids (R7BP-N21); C252S, C253S are stated for all R7BP constructs; Its tag is surmised from its use as SPR ligand; also called truncated R7BP derivative lacking the N-terminal 21 amino acids; source: Expi293 HEK cells, transfected, purified) QISKPPLQSGDWERRGSGSESAHKTQRALDDCKMLVQEFNTQVALYRELVISIGDVSVSCPSLRAEMHKTRTKGCEMARQAHQKLAAISGPEDGEIHPEICRLYIQLQCCLEMYTTEMLKSICLLGSLQFHRKGKEPGGGTKSLDCKIEESAETPALEDSSSSPVDSQQHSWQVSTDIENTERDMREMKNLLSKLRETMPLPLKNQDDSSLLNLTPYPLVRRRKRRFFGLSSLISS |  | 1.8 |  | 
3 | R7BPΔC (domain or fragment, human, UniProt Q6MZT1 1-222, looked up, R7BP (RGS7BP), human, C-terminus aa223–257 removed (the mutated cysteines 252 and 253 lie in the removed stretch); Its tag is surmised from its use as SPR ligand; also called R7BP with the C-terminus (aa223–257) removed; source: Expi293 HEK cells, transfected, purified) MSSAPNGRKKRPSRSTRSSIFQISKPPLQSGDWERRGSGSESAHKTQRALDDCKMLVQEFNTQVALYRELVISIGDVSVSCPSLRAEMHKTRTKGCEMARQAHQKLAAISGPEDGEIHPEICRLYIQLQCCLEMYTTEMLKSICLLGSLQFHRKGKEPGGGTKSLDCKIEESAETPALEDSSSSPVDSQQHSWQVSTDIENTERDMREMKNLLSKLRETMPL |  | 9.9 |  | 
